We go through 15 sequences from the DeepSol protein solubility set.

The nature of this series: soluble on expression in E. coli; label from the status in PepcDB or PDB records.
Turning to “MGHHHHHHSHMSTKVPIYLKRGSRKGKKEKLRDLLSSDMISPPLGDFRHTIHIGSGGGSDMFGDISFLQGKFHLLPGTMVEGPEEDGTFDLPFQFTRTATVCGRELPDGPSPLLKNAISLPVIGGPQALTLPTAQAPPKPPRLHLETPQPSPQEGGSVDIWRIPETGSPNSGLTPESGAEEPFLSSASSLLSLHVDLGPSILDDVLQIMDQDLDSMQIPT”, the “soluble on expression in E. coli” value is listed as “soluble”.
On to “MSFFDKVKGAINSGRDELTRQVGRFKNKKFMQGTVAVCARIAVSSDGVSSEEKQKMMGFLRSSEELKVFDTNEVIEFFNKLVSSFDFDVEIGKGETMKYILALKDQPEAAQLALRVGIAVAKSDGNFDQDEKLASREIAIALGFDPAEFGL”, for which the “soluble on expression in E. coli” value is listed as “not soluble”.
With “MKRLLLSAAILSSMALFNVNAQELKTSADMKGSFKKNVVLEVFTAEWCGYCPGGKERIAKAIEMLDDEYKERVFQTFVHYNDGISKKWPRVGQLFIALDQTLGIPGFPTFSVCRMEKKGENLSIGAPIAIKNKIMKGFGDGTAPAEVNLKLTKGATPEDVCTATFTGKVDADLIGKPLMLTAYVLKNNMKPINPQNGAGDGYLHQHTVLMILSTDVKGDALNIAADGSFTIKKEFKLDGFEIKDTDVLAFVHHPMSNAENHSIINAGQESLDKAEPTATEQIVATPSVKAYVQNGKIVVEEEYSKMEVFNATGQLVKNESLVPGVYVVRITANGVMYFLKVLVPMAGDPLEHHHHHH” the entry was “soluble”.
In the case of “MFRNAAELVAQAKEQNVKIAEIMIQCEMETRSISREEVIAGMEKNLVVMEQAVERGIRGVKSPTGLTGGDAVKVQAYMKSGKGLSGDTILDAVSKAVATNEVNAAMGIICATPTAGSAGTVPGVLFALREKLQPTREEMIEFLFTAGAFGMVVANNACISGAAGGCQAEVGSASGMAAAAAVEMAGGTQEQAATAMAISLKNMLGLVCDPVAGLVEVPCVKRNAAGAANAMISADLALAGVTSTIPCDEVIEAMFRIGQTMPVALRETAEGGLAATPTGRRLQEEIFGKTNN”, the “soluble on expression in E. coli” value is given as “not soluble”.
Regarding “MGSDKIHHHHHHMDANSLKAFLTIVDQGSFSEAAETLHLTQPAISKRLAALETQLGTRLIDRSNREIRLTEAGTRLLPHARKILDEIHNARMALTTSADSIGGELHAIASHHIGLHHLPNWLRRYRREYPQVDLHLQFMESDAAYDQMNKRNAELAFVTLSDSMNPEFSILAQWPDPMAFVVGKEHPLATLASPSLSDLAPHPALLPDTSTATYRVVSRLFLEANLTLRPLMPTNYLETIKMMVSVGLGWSILPVSMLDNSLKVLEVPHPVTRVLGAVALSRRQLGSAAQALLQIVEQEETRPESGQ”, the “soluble on expression in E. coli” value was “not soluble”.
Turning to “MGSDKIHHHHHHMALPTQLVYPGFEKIPRFWDNEQQSQVARVDPGEYYYSCQDEFIYTRLGSCVAACIWDPLMGIGGLNHFLLPEKVLHEDWHQLTSYSCRYGNWAMEQLINGILSAGGLKSRLKAKIFGGATLGRISVLNVGQSNIAFVREYLALEGIPVMSEDLGGPWPRKVLFHPQSGRVRLKRLEMTGMAQIEREEEAYLNDVAEHAKVPEPGSIELF”, the “soluble on expression in E. coli” value was “not soluble”.
As to “MMKRALTGIQASGKQHLGNYLGVMQSLIELQEQCQLFVFVADLHSITVDFQPQALKQNNFDLVRTLLAVGLDPQKACLFLQSDLLEHSMMGYLMMVQSNLGELQRMTQFKAKKAEQTRNPNGTLNIPTGLLTYPALMAGDILLYQPDIVPVGNDQKQHLELTRDLAQRIQKKFKLKLRLPQFVQNKDTNRIMDLFDPTKKMSKSSKNQNGVIYLDDPKEVVVKKIRQATTDSFNKIRFAPKTQPGVTNMLTILKALLKEPVNQSLTNQLGNDLEAYFSTKSYLDLKNALTEATVNLLVNIQRKREQISREQVFNCLQAGKNQAQATARTTLALFYDGFGLGSQNIK”, the “soluble on expression in E. coli” value is “soluble”.
With “MPLITTETGKKMHVLEDGRKLITVIPGDGIGPECVEATLKVLEAAKAPLAYEVREAGASVFRRGIASGVPQETIESIRKTRVVLKGPLETPVGYGEKSANVTLRKLFETYANVRPVREFPNVPTPYAGRGIDLVVVRENVEDLYAGIEHMQTPSVAQTLKLISWKGSEKIVRFAFELARAEGRKKVHCATKSNIMKLAEGTLKRAFEQVAQEYPDIEAVHIIVDNAAHQLVKRPEQFEVIVTTNMNGDILSDLTSGLIGGLGFAPSANIGNEVAIFEAVHGSAPKYAGKNVINPTAVLLSAVMMLRYLEEFATADLIENALLYTLEEGRVLTGDVVGYDRGAKTTEYTEAIIQNLGKTPRKTQVRGYKPFRLPQVDGAIAPIVPRSRRVVGVDVFVETNLLPEALGKALEDLAAGTPFRLKMISNRGTQVYPPTGGLTDLVDHYRCRFLYTGEGEAKDPEILDLVSRVASRFRWMHLEKLQEFDGEPGFTKAQGED” the entry was “soluble”.
In the case of “MEKVNPKIQRLMSTDKQHFLTKHEFHTKETAERKDLLKFFIETRLKTDGGFLTNYLPDAERKDVATGHELLSESSGLYLRNLAFDTQGRFDNFYKQTKDTFYDGVQFSYRIDEQGNKYNVNASIDDLRIIRSLIEAGGHFKTDQYDQEIKKLGKSFMKTSMKDNILIDFYDSKSKQQSSETSLFYIDLITLGYLYKEFGISADYLQYHYQLIDDGYISDDLPLYQTKFNHQTNKYENNGTLNIIESLLTIVHLSEVGMAKQTSIDFVRKQVQQGTLFNSYDLNGSPVDKNQSAASYAIAALIGVAENDKELYRAAITVLNNFQIMDSSSPIYGGFGDKVTKQVYSYNNLMALLAYDF”, the “soluble on expression in E. coli” value is listed as “not soluble”.
The result for “MEMKQKLLTDIELDVHELKLLMNTFSKEPTQTLSELLKRSILRMQERLEQLSEEISAVPVEASPSPVAEAESEAPIVEEQAPVIEEVECPVIEEKVVEENEATAPGEDEPVIVQEPQTVVEEAVIEEPVVEDEMEEKEAEDESEDDESLLIEEPKTAVLGESIKMAAGLRHSISLNDSFRFSREIFGGDPELMNRVIEQISVMSSYKTAVAFLASKVSVNEENEAMIDFLELLKKYFNQSA” reads “soluble”; that for “MIIKRTPQAASPLASWLSYLENLHSKTIDLGLERVSLVAARLGVLKPAPFVFTVAGTNGKGTTCRTLESILMAAGYKVGVYSSPHLVRYTERVRVQGQELPESAHTASFAEIESARGDISLTYFEYGTLSALWLFKQAQLDVVILEVGLGGRLDATNIVDADVAVVTSIALDHTDWLGPDRESIGREKAGIFRSEKPAIVGEPEMPSTIADVAQEKGALLQRRGVEWNYSVTDHDWAFSDAHGTLENLPLPLVPQPNAATALAALRASGLEVSENAIRDGIASAILPGRFQIVSESPRVIFDVAHNPHAAEYLTGRMKALPKNGRVLAVIGMLHDKDIAGTLAWLKSVVDDWYCAPLEGPRGATAEQLLEHLGNGKSFDSVAQAWDAAMADAKAEDTVLVCGSFHTVAHVMEVIDARRSGGK”, “soluble”.
Consider “MDSFWFVQQWPPAVCSFQKSGSCPGSGLRTFTIHGLWPQQSGTSLTNCPGSPFDITKISHLQSQLNTLWPSVLRANNQQFWSHEWTKHGTCSESTFNQAAYFKLAVDMRNNYDIIGALRPHAAGPNGRTKSRQAIKGFLKAKFGKFPGLRCRTDPQTKVSYLVEVVACFAQDGSTLIDCTRDTCGANFIF”, for which the “soluble on expression in E. coli” value is given as “soluble”.
In the case of “RAKGTLRIWAEPFTKLRVPKIFNLRMDPYEVADVTSNTYYDWMLDRAYMLVPAQTYVGRFLETFKEFPPRQKAASFSLDQVMEKLQENPNK”, the “soluble on expression in E. coli” value is recorded as “not soluble”.
As for “MGSDKIHHHHHHMKVSDIMTPDPITYHVPSSINEVIKVLIKYNVTGVPITDQSGHYAGFVSRRDVFANPRETQTAMVMRRSKAVYEDDEVRTAALEMLAQKKRHLTVVDRDGHVKGILTPQNFMKTIKENYGNVKVKEVMKETSVPIWYKTPLPAILTVMNVSGIFSFPVIDDNGTFVGLLVDRDIFDRIDLKFDSILSEMGIADDEDPWSWTGLRNVFKYVVERADIKLPKISADEIMVKNPTVVYANDKLSTAAELMIKYNYNQLPVLDDSHGIYGMLYDIEMLGVFQ”, the “soluble on expression in E. coli” value is reported as “not soluble”.
Regarding “MSNVCIVYSSTHHGNTEKVLNKIKEKFPETVLIKAGDFNPDDFNRYEAIGFASGIFYFKFAKPVDKLFEQALVGSVQKLFFIYTAGAVNAGFEKTLRKKTEQSGKICMGIFGCKGFDTFGPLKLIGGLNKNSPNEKDFKNAIDFFEKNIINALEHHHHHH”, the “soluble on expression in E. coli” value is recorded as “soluble”.
